Assay: soluble on expression in E. coli; label from the status in PepcDB or PDB records

Row | Sequence | soluble on expression in E. coli
1 | MLIVLPPSETKAVGGKNPAIDFDSLHFPTLNPIRKEIAHDLARLDISQAQEILKLSQKLLPEAQRNIELFQSPTMPAVLRYTGVLYDALDATSLPSSTWEHLAIGSALFGVVMANDNIPHYRLSGTTKLPCADASVPTLKRRWGNAISTALSDTNEVILDLRSGTYQQLGKVKHAITVRVESEDSDGKRSVISHFNKHYKGQLARALLLHDVTPDPDHAIEDLIGMTQECGFAVEHSKPHELTVVITQ | not soluble
2 | MSLAVVASAVAGCGQVRVGQVEPAPGSPTRAQVEDMLGRVRVVAERGRPGGYDRDCGRGGGCVFGPAWTDDHGGAEGHNGCDTRNDVLAAQLSDVRYREGTRDCVVVAGTLRDPYTGRLLEFRKADARDVQIDHVYPLAAAWDLGAAGWSPEQRVRFANDTVTNLMATAGAVNQAKGDATPAEWMPPARANHCFYAGKYLTVAVRYDLPVTAADNAVLHAIARTCPEGHHHHHH | soluble
3 | MEHICGTSRIAGFRFSLYPMTDDFISVIKSALKKTDTSKVWTKTDHISTVLRGSIDHVFDAAKAIYLHAANSEQHIVMNGTFSIGCPGDTQGDTYLSKGDKRVNEDAVRGLKAEAPCQFALYPMNEPDYMGLIMEAVDIAKAQGTFVQGVHYASELDGDAHDVFSTLEAVFRMAEQQTNHITMTVNLSANSPSRKNRKQG | soluble
4 | MSSRVANLTVIVSSKRRRVSVARFSCGKTAQLSKKQTGYYSPEIFPSTGKDCNPQPANCLKDQYVLRHCCVDDRSGKMGYSVKFLVLTRMDTETASLFHCKPCYSKMTFTIYHPLTHSFFTSCWLEHHHHHH | not soluble
5 | MSLTAYMDHKNLANEVIDDARAREITDGVHRVLDRIAAAEEQAGREAGSVRLLAATKTRDIGEIMAAIDAGVRMIGENRPQEVTAKAEGLARRCAERGFSLGVAGAAPDAAAEHIPFHLIGQLQSNKIGKVLPVVDTIESVDSIDLAEKISRRAVARGITVGVLLEVNESGEESKSGCDPAHAIRIAQKIGTLDGIELQGLMTIGAHVHDETVIRRGFSHLRKTRDLILASGEPGTDRCRELSMGMTGDMELAIAEGSTIVRVGTAIFGERAFIEGHHHHHH | soluble
6 | MSLISPIIRLSHVTFQTSSAARVIKEFVTKYQFHPFAARGLDGGSPCQVALKNGGVVFMVNENTPKTHENSVLLYDFPLQIPFPDTACNVTFEVEDVSGLYHHLVDEGCQLLLPPTELHDDFGSVTYCIVKSVVGNVSHTLIDRTHYRSSFLPGFEYLKNSTHNLSSGNMTEGHHHHHH | not soluble
7 | MSLDIEEARTTGIIDDKEAESRSESLEKAYLKTPLDPWKGEICTVSLSAAAHESRVVPISHKVGQVFEPSMDRDEARKLVLDLLDEYLFKNEKVLKIAVNLSFETKYAAKYGKYILGKVADPLIMWVRCLQIAAPQKINNPKKPTSGWGLKPATKHIFGVTMNDFSALLKKYKVNFFDEIDASKGEGLLYSAEDSDYAVQHYEYWSQIAAQISRYEEWLHKIEMPFTRVIGLMEYWGMNWDPNLATQKKQEAEIMQEQAAERIKQIAKETFNIDINTGKSGKTNEVKSLMFDYLKIPIAKYGKTGASLDQEALIDMAFMLENKLNDIDEEKYLGVSLPENWENIDPEKDPTLDKLERGAIRIAKREPHPYKEQALEVIDQLKKIQKYTTLLSSHIIGREKYLNFMSGRIHAGYSPFTETGRLNSFNPNGQNVPRPDNDEFKIRNFFVPKPGKILFFIDFSGFELRLMAWKSGDEVMTELFNTGGDMHRRTASVMTGKSEAEIVKKERTDAKAGNFGISYGGTEHALQFTFKTKYMIRKTLDECAQIVNAVKTAYKRIPEYQRKIVLEAREQGYVQTIYGYMRLLPGINSANRRDRGSAERQAANTPVQGSAADIMKKVQNEIYESIGKQEGVLSHGSADMIAQIHDEIIFEIDDDPEIVVAVEKQIKQVMEQPPVPGFPVPIEAEGSVGYRWGEKMSVESWLKQREGHHHHHH | soluble
8 | GPGSMLGSPLFPVAMDSFFDEDECERLGVWEDPRCLRAAEYTQCVATIRALIEQYGVAAAPLHTVKDAAQFLRFEASSAVSHPPMRESAVSYTVKSYGEASKKCVSEANNIVLSSLCMNDACVAGNAADGTDVALEKVFIVCEGFLIFGYPELCNMFDFFVFVHSDNETACLRRFFRGSRRKKRKPQGGNCDRILRMRTSRVNAELWSSEGAAANKTLSPSFSSVLPHLKYMPPQPSSPNDYQGFWLQSEYKELPPPMPFGMSGLKAPPYDWLEVKDLQYVKQMLHQWANASCVDDVEGVLGRYFEFRYWFYYEVLFYHYQLRGISEENVTTACQAKGTTKTSPSQSVLHIKNDASVSCVMLDSQLLALAQQVSGDLINGEGEVRLLLGWN | not soluble
9 | MKIRDLLKARRGPLFSFEFFPPKDPEGEEALFRTLEELKAFRPAFVSITYGAMGSTRERSVAWAQRIQSLGLNPLAHLTVAGQSRKEVAEVLHRFVESGVENLLALRGDPPRGERVFRPHPEGFRYAAELVALIRERYGDRVSVGGAAYPEGHPESESLEADLRHFKAKVEAGLDFAITQLFFNNAHYFGFLERARRAGIGIPILPGIMPVTSYRQLRRFTEVCGASIPGPLLAKLERHQDDPKAVLEIGVEHAVRQVAELLEAGVEGVHFYTLNKSPATRMVLERLGLRPASGQP | soluble
10 | MSLQIAANKAVSIDYTLTNDAGDVIDSSAGGAPLVYLHGAGNIIVGLEKALEGKNVGDELSVAIEPEDAYGEYSAELVATLTREMFEGVDELEVGMQFHASAPDGGMQIVTIRDIDGDDVTVDGNHPLAGQRLNFKVKVVDVREANAEEIAHGHIHGEGGHHHEGGSHHHHHH | soluble
11 | MSDLDTPTPSPHPVLLNLEQFLPYRLSVLSNRISGNIAKVYGDRYGMAIPEWRVITILALYPGSSASEVSDRTAMDKVAVSRAVARLLERGFIRRETHGDDRRRSMLALSPAGRQVYETVAPLVNEMEQRLMSVFSAEEQQTLERLIDRLAKDGLPRMASKD | soluble
12 | MQMQPKVGQFRYYPSVGSLNTYLTNMLEKIRVELPDIQRISFALYDEKKDSIKTCADSSPVSHDFVHYELPLANLPSLQQSKESGALRIIHDLANQAKSHTPHNRWLLEQQYCSSLVKPVFDQHTFVGFLFFNASMSHYFSASVVERLETYLSLIQQSICGEYALIHQLVDHVHQIETQSPEHWLHIKQHKERISRYARIIALDVADQYALDDELIENISQFATCHDLGKLALPADLLQKRASLANHEKEQVHNHIEYGIDLLNEVIAKLGTPHHPCLAVLREIMAYHHEFLDGSGYPFGLVSDQIPIPARIIAVANIFDALTAHRPYKQAQSIPHALLELEKMVSDGKLDRHCVNALRENQEELKEIVARFPEQDPKDQGITH | not soluble
13 | MQGYHHPLATNHQTQYGTVGQALHIARKLLPFIPDNAGILIVPCCRGGSAFTAGSEGTYSERHGASHDACRWGTDTPLYQDLVSRTRAALAKNPQNKFLGVCWMQGEFDLMTSDYASHPQHFNHMVEAFRRDLKQYHSQLNNITDAPWFCGDTTWYWKENFPHSYEAIYGNYQNNVLANIIFVDFQQQGERGLTNAPDEDPDDLSTGYYGSAYRSPENWTTALRSSHFSTAARRGIISDRFVEAILQFWRER | not soluble
14 | MGSDKIHHHHHHMSFSNEMKVFSGNANRPLAEKIANYLNLQLGDCEVGRFADGEINVRINETVRGHDIFLIQPTSPPVNENLMELLIMIDAFKRASANTIAVVIPYYGYARQDRKAKGRDPISAKLVANLITVAGATRVLTVDLHAEQIQGFFDIPVDNLWSYPVFAEELLKRENIVPEETVVVSPDVGGVRRARRMAERLGTSLAILDKRRPSDNVAEVVNIIGEVEDKVVIMFDDIIDTAHSIVKGAEALKNAGAKRIIACATHGVFSDRALERIENSSIDTVYITDTIYHENLPEKVKVISVANLIGEAIMRIRKHLSVSTLFR | not soluble
15 | MDVSFEFEHYQVRLIKSSDAVTIANYFMRNRHHLAPWEPKRSHAFFTPEGWKQRLLQLVELHKHNLAFYFVVVDKNEHKIIGTVSYSNITRFPFHAGHVGYSLDSEYQGKGIMRRAVNVTIDWMFKAQNLHRIMAAYIPRNEKSAKVLAALGFVKEGEAKKYLYINGAWEDHILTSKINDDWKPE | not soluble
16 | MSQYSNMYKFEIDIQGNLEEVYGRIFSVLKQAGYIILSYVDVAEILQRTMQKKIDPLYILNICKPAAANEFISESYETSMFIPCKLVLHQMGENTRVSLQLISPQIETFTDLSTDVAKKYENEIVDILKKM | not soluble
17 | LSPLEARVIGCLIEKEVTTPDHYPLTLNSLTTACNQKSNREPVLNLSEAEVQDTVEGLIARRLVSDESSFNSRTSKYQHRFCNTEFGDLKLNQQELGLICCLLLRGAQTPGELRTRTNRLCTFTDVKETEAVLERLANRDSGALVVKLPREPGKRESRYHHLFCGEVDMAAFATSSDNE | not soluble
18 | MWYRALFPGATWRIPAKEGKSIYLTFDDGPIPEITPWVLDTLDELGVKATFFCVADNVRRYPDLFAEIQRRGHQVGNHTFHHLQGLKVRTRTYLKDVEEADRLINSRFFRPPHGHLRFMQTLLLSNHYDIIMWDVITRDYNARLSPDTVFGSVVRYARNGSIITFHDSLKAAPNMQQAMPRAVRWLLDEGYTFKCLGDPAD | not soluble
19 | MGSDKIHHHHHHAEPAPSQEDMRLYTIASAPSAGRIEQDIKTLVGFGTRHTLSQTDSNAQGIGAARRWIETEFQRISAKCNGCLEVVTLSETVSGKRIPNPTEVVNVIAIQRGLTDPNRAVVMTGDIDSRVTDVMNSSAISPGANDNASGVAGTLEAARVLSQYQFAGTIIYAALSGEEQGLYGGDILINHAKAQGLQIQAVLNNDMIGNIAGINGVIDNHSVRVFSEGVRIAETSEEAKERYFSGGENDSASRNLARKIKSLADQYMTNLDVQLINRLDRFGRGGHHLPFNKAGFAAVRVMETNEHYHRQHQDIRTENGIAYGDVIEGVDFDFNAKLTALNAISLAAMAWAPAPPKEVKISGEVSADTVLKWTVNNKDKALVGYRVYWRNTTASEWTHSRYVGKLGQFTLKNLVIDNYLFGVASVSADGNTSPVVFPGAIGAF | not soluble
20 | MVAVPEGYESLLERPLYGHLATVRPDGTPQVNAMWFAWDGEVLRFTHTTKRQKYRNIKANPAVAMSVIDPDNPYRYLEVRGLVEDIVPDPTGAFYLKLNDRYDGPLTEPPADKADRVIIVVRPTAFSKQVA | soluble
21 | MGSDKIHHHHHHMWTEIDTQISRVTGERFQSQQRRSVSGGCINQGYAVADGTLTYFVKLNQASQVAMFEAEALGLEQMLTTNSIRVPKPICWGIAGNSGYIVLEWLEMGSGNTNSWEEMGRNLAKMHKATSQKGYGWDMNNTIGSTPQINTWTEDWTEFYSKHRLGYQFQLARRRGGSFPKQDELLGALPELLADHEVQPSLVHGDLWGGNAGCTVSGEPVIFDPATYFGDREVDIAMTELFGGFPAAFYKGYNQVFPLDAGYEKRKTLYNLYHILNHFNLFGGGYASQANRMIEQILR | not soluble
22 | SLDGILDHTMIRVEDLDASLEWYTTHLNYEEKGRWEAETFTNVYLGPEDAGDAAARLELTYNHDGRSYTMGDAWGHIAVRVPDVEAAYDELMQSGVEDYRPPAENPGYAFVTDPDGHEVEIVERDYGTKWSLDHTMLRVEDVNAALGYWIRTFEYEPTGRWEADSFANYFVSPQDAPAEAMDIELTYNYDGRSYTMGDAWGHVAVRCADLQSAWETLQEREAPDYRDPESCDNRYAFTKAPDGHEIEILPTEEG | not soluble

Reference: the DeepSol protein solubility set
